T1: 6xHis-TF-DGKα-C1 domains (porcine, UniProt P20192 196-362)
T1 sequence (looked up): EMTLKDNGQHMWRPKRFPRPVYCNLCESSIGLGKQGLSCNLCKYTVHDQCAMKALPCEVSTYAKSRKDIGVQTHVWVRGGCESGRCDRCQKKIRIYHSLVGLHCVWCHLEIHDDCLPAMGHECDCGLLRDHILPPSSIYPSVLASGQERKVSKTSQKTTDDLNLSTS

B1: GST-DGKα-EF-hand motifs (domain or fragment)
chain: not shown
B2: EGFP-DGKα-C-terminal region (domain or fragment)
chain: not shown

Tests used:
6xHis-TF-DGKα-C1 domains = target: T1, 6xHis-TF-DGKα-C1 domains; assay: pull-down
GST-DGKα-EF-hand motifs = target: B1; assay: pull-down
GST-DGKα-EF-hand motifs, sequence (P20192 103-200): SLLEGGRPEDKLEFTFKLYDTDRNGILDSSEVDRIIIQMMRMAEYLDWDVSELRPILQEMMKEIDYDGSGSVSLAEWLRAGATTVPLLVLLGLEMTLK

| Binder | binding result (6xHis-TF-DGKα-C1 domains) | band intensity relative to the RVH domain (GST-DGKα-EF-hand motifs) [fold] |
| --- | --- | --- |
| B1 | binds | – |
| B2 | – | ~3 |

Source: publication PMC4050180 (FEBS Open Bio, 2014)
